Laboratory results taken from patent US20090169520A1, “Compounds, Pharmaceutical Compositions and Therapeutic Methods of Preventing and Treating Diseases and Disorders Associated With Amyloid Fibril Formation” (YISSUM RESEARCH DEVELOPMENT COMPANY OF THE HEBREW …, priority 2005, published 2009).
Ends that are not written are not given here.

Columns and labels:
[1] = Solubility in water for CD measurements; format: physicochemical; details: up to the concentration required for CD tests (1×10^−4 M); HFIP used instead
Protocol: Circular Dichroism (CD) measurements—For circular dichroism (CD) measurements, ASP peptides were dissolved in double distilled water (DDW) to a final concentration of 1×10^−4 M. To reach this concentration, as required for the CD measurements, BSP had to be dissolved in 1,1,1,3,3,3-hexafluoro-2-propanol (HFIP). Direct CD spectra were recorded at room temperature using a CD Jasco J-810 Spectropolarimeter (Easton, Md., USA) with a 1 mm path length cell. Recordings were at 0.5 nm intervals in the spectral range 185-260 nm.
Molecular modeling points at putative structural differences between BSP and ASP—In search for structural differences between the BSP and ASP peptides, the circular dichroism (CD) properties of the synthesized series of BSP and ASP peptides were determined (FIG. 4). […] The helical features observed for ASP40 are in line with reports of others (Cottingham et al., 2003).

Aβ (1-40) peptide = target: T1, Aβ (1-40) peptide (Homo sapiens, UniProt P05067); assay: In vitro formation of amyloid fibril from Aβ (1-40), Thioflavin T fluorescence; format: biochemical; details: for effect on Aβ fibril formation (in words): 33 μM Aβ, ThT fluorescence; for Lag (fold change) / Rate (fold change): relative to No addition, asterisk = statistically significant
T1 construct: synthetic Aβ (1-40) peptide; purchased Biosource, Camarillo, Calif., USA; host or cells: chemical synthesis
T1 sequence (P05067 672-711 limits assumed): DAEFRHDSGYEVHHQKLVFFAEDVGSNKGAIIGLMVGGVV
Source text: In vitro formation of amyloidfibril—In vitro formation of amyloid fibril was in the presence of the synthetic Aβ (1-40) peptide (Biosource, Camarillo, Calif., USA) as a precursor. The reporter molecule was Thioflavin T (ThT) (Sigma, Cat. No. T-3516, Jerusalem, Israel), a benzothiazole dye that undergoes a shift in its excitation spectrum (from 340 nm to 450 nm) when interacting with β-sheet amyloid structures. The resultant ThT fluorescence signal is proportional to the amount of amyloid formed (LeVine, 1993). A stock solution of Aβ in dimethylsulfoxide (DMSO) was diluted with phosphate-buffered saline (PBS) containing 0.02% Na-Azid to a final concentration of 162 μM and 20 μl of the diluted Aβ solution was placed in each well of a 96 multiwell plate (Nunc, Roskilde, Denmark). After 20 minutes of pre-incubation at room temperature of the Aβ samples (20 μl), 80 μl of 1.25 μM ThT in 50 mM glycine buffer, pH 8.5, was added. Incubation was with shaking at 200 rpm for 6 to 8 hours at the noted temperatures. Fluorescence was measured continuously or at 30-40 minute intervals, using a Spectro-fluorometer (Tecan, Maennedorf, Switzerland). Excitation and emission wavelengths were 450 nm and 485 nm, respectively. Enhancement of the fibrillation process by the different combinations of water-dissolved cholinesterases and peptides mimicking fragments thereof, was evaluated by dissecting the time curves into two stages: the lag before the onset of the fluorescence increase (the nucleation process) and the average rate of fluorescence increase at several time points (rate of fibrils formation). Statistics analysis was performed using the Kaleidagraph Software (Reading, Pa., USA).
BChE attenuates amyloid fibrils formation—Amyloid fibril (Aβ) formation was quantified by measuring changes in ThT fluorescence. As predicted, Aβ fibrils were spontaneously formed in vitro provided that the Aβ peptide was present above 5 μM. […] Reactions were performed in the absence or presence of increasing concentrations of purified human BChE (SEQ ID NO:2; FIG. 1a), recombinant ACHE-S (SEQ ID NO:6; FIG. 1b) or both (FIGS. 1c and d). […] Due to the complex kinetics of the fibril formation process the apparent rate of change in ThT fluorescence was repeatedly determined during the exponential phase of increase in its signal (at 390±20 minutes). […] In contrast, addition of similar doses of AChE to Aβ, predictably shortened by half the lag time prior to fibril formation, again in a dose dependent manner (FIG. 1e). The lag period therefore decreased from 240 minutes to 150 minutes and the maximal rate of fibril formation increased from 0.057 to 0.116 fluorescence units (FU)/min for Aβ alone as compared to Aβ in the presence of 0.36 μM AChE-S (FIG. 1b and Table 7, hereinbelow). When increasing doses of hBChE were added to a combined mix of 33 μM Aβ with 0.36 μM AChE-S, a dose-dependent interference with the fibril formation process was observed (FIG. 1c and 2a). Thus, BChE is capable of reducing the rate of fibrillation of Aβ alone, or Aβ which is formed in the presence of AChE.

Substance	solubility in water (in words) [1]	effect on Aβ fibril formation (in words) (Aβ (1-40) peptide)	Lag (fold change) (Aβ (1-40) peptide)	Rate (fold change) (Aβ (1-40) peptide)
GNIDEAEWEWKAGFHRWNNYMMDWKNQFNDYTSKKESCVGL [BSP41]	difficulties to solubilize			
ASP23: synthetic AChE-S C-terminal peptide, mimics residues 592-614 in hAChE [reference compound]		no significant effect on amyloid formation	1.1 fold change	1.2 fold change
ASP40: synthetic AChE-S C-terminal peptide, mimics residues 575-614 in hAChE (DTLDEAERQWKAEFHRWSSYMVHWKNQFDHYSKQDRCSDL; ASP40 Synthetic peptide) [reference compound]		failed to show any significant capacity to activate or inhibit fibrillation	1.1 fold change	0.8 fold change
